Target: double mutant (E87C, C312T) AmtB protein complex from E. coli (E. coli) (UniProt P69681)
Experiment: native MS

stoichiometry N: 3
Substance: double mutant (E87C, C312T) AmtB protein complex from E. coli (from UniProt P69681 23-428) (natural protein)
